In article PMC9065009, “Mechanistic insights of ABC importer HutCD involved in heme internalization by Vibrio cholerae” (Scientific Reports, 2022) one finds stoichiometry N and Kd data, which are given here for two compounds.

Assay [1] has as its target HutD. The assay can be described thus: cross-linking.
In assay [2] the target is HutD. The assay can be described thus: SEC; Superdex 200 Increase 10/300 GL; 250 uM HutD preincubated 1.5 h at 4 °C with 500 uM AMP.PNP; 500 ul injected; 50 mM Tris-HCl pH 8.0, 300 mM NaCl, 5 mM MgCl2; 0.5 ml/min; calibrated with molecular weight standards. Background: In gel filtration, larger molecules generally elute earlier.
Assay [3] deals with T1, HutD (Vibrio cholerae, UniProt Q9KL34).
T1 construct: gene hmuV
T1 sequence (Q9KL34 whole entry, looked up): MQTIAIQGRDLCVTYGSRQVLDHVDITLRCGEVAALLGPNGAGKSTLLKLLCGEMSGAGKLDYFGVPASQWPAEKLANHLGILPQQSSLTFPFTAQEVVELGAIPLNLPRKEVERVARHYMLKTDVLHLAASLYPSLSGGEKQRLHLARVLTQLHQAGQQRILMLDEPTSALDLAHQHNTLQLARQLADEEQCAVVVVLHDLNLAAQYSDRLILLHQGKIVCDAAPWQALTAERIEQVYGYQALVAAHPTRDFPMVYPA
The assay can be described thus: biochemical.

HutD (enzyme), sequence (O52047 whole entry): as the sequence (Q9KL34 whole entry, looked up) above

Consider HutD (enzyme), for which the stoichiometry N with HutD [1] and with HutD [2] was 2 throughout.
`Nc1ncnc2c1ncn2[C@@H]1O[C@H](COP(=O)(O)OP(=O)(O)NP(=O)(O)O)[C@@H](O)[C@H]1O` [AMP.PNP]: the Kd (commonly the constant that tells how readily two partners part at equilibrium) on HutD [3] amounted to 94 ± 0.024 µM.
